# Results taken from the supplement of paper PMC10567573.
# B1: PI4K2A (parent)
# chain: FVKDPQGRIIAVFKPKNEEPYGHL
# B2: INTS4 (parent)
# chain: AKQIMEETYKMEFMYSGVENKQVV
# B3: ATL3 (parent)
# chain: EKALASILLQDHIRDLDVVVVSVA
# Variants of: B1
# Assay: protein stability index of a GFP-peptide fusion (GPS, HEK-293T) (PSI 1-6); higher = more stable
# Conditions: c terminus: a fixed tail appended
# 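Also: lentivirally expressed fusions sorted by FACS into six bins by GFP to DsRed ratio, PSI derived from sequencing read proportions per bin multiplied by bin number.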
row,Variant,protein stability index
1,FVKDPQGRIIAVFKPKNEEPYGHS,2.1
2,FVKDPQGRIIAVFKPKNEEPYGHT,2.22
3,FVKDPQGRIIAVFKPKNEEPYGHM,1.92
4,FVKDPQGRIIAVFKPKNEEPYGHP,2.33
5,FVKDPQGRIIAVFKPKNEEPYGHK,2.04
6,FVKDPQGRIIAVFKPKNEEPYGHR,1.42
7,FVKDPQGRIIAVFKPKNEEPYGHV,2.19
8,FVKDPQGRIIAVFKPKNEEPYGHW,1.74
9,FVKDPQGRIIAVFKPKNEEPYGHN,1.63
10,FVKDPQGRIIAVFKPKNEEPYGHQ,2.03
11,FVKDPQGRIIAVFKPKNEEPYGHY,1.41

# Variants of: B2
# Assay: as above
# Conditions: c terminus: a fixed tail appended
row,Variant,protein stability index
1,EKQIMEETYKMEFMYSGVENKQVV,3.37
2,DKQIMEETYKMEFMYSGVENKQVV,3.46
3,CKQIMEETYKMEFMYSGVENKQVV,1.86

# Variants of: B3
# Assay: as above
# Conditions: c terminus: a fixed tail appended
row,Variant,protein stability index
1,EDALASILLQDHIRDLDVVVVSVA,2.78
2,EYALASILLQDHIRDLDVVVVSVA,2.98
3,ERALASILLQDHIRDLDVVVVSVA,1.3
4,EKALASILLQDHDRDLDVVVVSVA,3.12
5,EKALASILLQDHSRDLDVVVVSVA,1.26
6,EKALASILLQDHYRDLDVVVVSVA,3.9
7,EKALASILLQDHTRDLDVVVVSVA,3.04
8,EKALASILLQKHIRDLDVVVVSVA,3.25
9,EKALASILLQGHIRDLDVVVVSVA,3.66
10,EKALASILLQPHIRDLDVVVVSVA,3.03
11,EKALASILLQEHIRDLDVVVVSVA,3.13
12,EKALASILHQDHIRDLDVVVVSVA,2.71
13,EKALASILEQDHIRDLDVVVVSVA,3.11
14,EKALASILKQDHIRDLDVVVVSVA,3.25
15,EKALASILPQDHIRDLDVVVVSVA,1.61
16,EKALASILMQDHIRDLDVVVVSVA,2.46
17,EKALASILLQDHIRDNDVVVVSVA,1.46
18,EKALASILLQDHIRDSDVVVVSVA,2.37
19,EKALASILLQDHIRDKDVVVVSVA,1.23
20,EKALASILLQDHIRDRDVVVVSVA,1.03
21,EKALASILLQDHIRDQDVVVVSVA,1.37
22,EKALASILLQDHIRDDDVVVVSVA,1.67
23,EKALASILLQDHIRDPDVVVVSVA,1.57
24,EKALASILLQDHIRDADVVVVSVA,1.31
25,EKALASILLQDHIRDLDVVLVSVA,3.35
26,EKALASILLQDHIRDLDVVTVSVA,1.89
27,EKALASILLQDHIRDLDVVAVSVA,1.58

row,Variant,protein stability index
1,EKALASILLQDHIRDLDVVQVSVA,2.1
2,EKALASILLQDHIRDLDVVHVSVA,2.18
3,EKALASILLQDHIRDLDVVWVSVA,3.67
4,EKALASILLQDHIRDLDVVEVSVA,2.89
5,EKALASILLQDHIRDLDVVMVSVA,1.82
6,EKALASILLQDHIRDLDVVRVSVA,2.2
7,EKALASILLQDHIRDLDVVNVSVA,3.1
8,EKALASILLQDHIRDLDVVDVSVA,2.79
9,EKALASILLQDHIRDLDVVYVSVA,2.34
10,EKALASILLQDHIRDLDVVPVSVA,3.2
11,EKALASILLQDHIRDLDVVKVSVA,2.79
12,EKALASKLLQDHIRDLDVVVVSVA,2.32
13,EKALASHLLQDHIRDLDVVVVSVA,2.31
14,EKALASDLLQDHIRDLDVVVVSVA,2.51
15,EKALASELLQDHIRDLDVVVVSVA,2.37
16,EKALASRLLQDHIRDLDVVVVSVA,2.08
17,EKALASNLLQDHIRDLDVVVVSVA,1.31
18,EKALASTLLQDHIRDLDVVVVSVA,2.13
19,EKALASLLLQDHIRDLDVVVVSVA,1.97
20,EKALASSLLQDHIRDLDVVVVSVA,2.85
21,EKALASPLLQDHIRDLDVVVVSVA,3.2
22,EKALASALLQDHIRDLDVVVVSVA,2.62
23,EKALASYLLQDHIRDLDVVVVSVA,2.15
24,EKALAKILLQDHIRDLDVVVVSVA,2.18
25,EKALALILLQDHIRDLDVVVVSVA,3.06
26,EKALAPILLQDHIRDLDVVVVSVA,1.93
27,EKALASILLQDHIRILDVVVVSVA,2.33

row,Variant,protein stability index
1,EKALASILLQDHIRWLDVVVVSVA,2.5
2,EKALASILLQDHIRVLDVVVVSVA,2.55
3,EKALASILLQDLIRDLDVVVVSVA,2.48
4,EKALASILLQDPIRDLDVVVVSVA,2.97
5,EKALASILLQDTIRDLDVVVVSVA,2.26
6,EKALASILLQDEIRDLDVVVVSVA,2.17
7,EKALASILLQDIIRDLDVVVVSVA,3.19
8,EKALASILLQDGIRDLDVVVVSVA,4.08
9,EKALASILLYDHIRDLDVVVVSVA,3.47
10,EKALASILLSDHIRDLDVVVVSVA,2.87
11,EKALASILLNDHIRDLDVVVVSVA,2.98
12,EKALASILLQDHIRDLDVNVVSVA,1.72
13,EKALASILLQDHIRDLDVDVVSVA,3.81
14,EKALASILLQDHIRDLDVRVVSVA,2.19
15,EKALASILLQDHIRDLDVCVVSVA,4.35
16,EKALASILLQDHIRDLDVSVVSVA,2.01
17,EKALASILLQDHIRDLDVHVVSVA,2.29
18,EKALASILLQDHIRDLDVAVVSVA,1.64
19,EKALASILLQDHIRDLDVQVVSVA,1.42
20,EKALASILLQDHIRDLDVPVVSVA,2.52
21,EKALASILLQDHIRDLDVGVVSVA,2.25
22,EKALASILLQDHIRDLDVKVVSVA,1.96
23,EKALASILLQDHIRDLDVVVVEVA,2.86
24,EKALASILLQDHIRDLDVVVVGVA,1.07
25,EKALASILLQDHIRDLDVVVVHVA,1.84
26,EKALASILLQDHIRDLDVVVVLVA,2.02
